± gives the uncertainty stated by the source.
B1: Peripheral plasma membrane protein CASK, residues 488 to 569; numbered along this chain, O14936 (parent)
chain: VRLVQFQKNTDEPMGITLKMNELNHCIVARIMHGGMIHRQGTLHVGDEIREINGISVANQTVEQLQKMLREMRGSITFKIVP

Variants of: B1
Assay: abundance fitness (aPCA) (normalised: wild type 0, dead -1); higher = more abundant; growth selection in yeast, the domain comes from the species named
Conditions: Homo sapiens

In order of falling abundance fitness:
1. VRLVQFQKNTHEPMGITLKMNELNHCIVARIMHGGMIHRQGTLHVGDEIREINGISVANQTVEQLQKMLREMRGSITFKIVP [D11H]  0.075 ± 0.077
2. VRLVQLQKNTDEPMGITLKMNELNHCIVARIMHGGMIHRQGTLHVGDEIREINGISVANQTVEQLQKMLREMRGSITFKIVP [F6L]  0.053 ± 0.023
3. VRLVQFQKNTDEPMGITFKMNELNHCIVARIMHGGMIHRQGTLHVGDEIREINGISVANQTVEQLQKMLREMRGSITFKIVP [L18F]  0.04 ± 0.061
4. VRLVQFQKNTDEPMGITLKMNEGNHCIVARIMHGGMIHRQGTLHVGDEIREINGISVANQTVEQLQKMLREMRGSITFKIVP [L23G]  0.033 ± 0.021
5. VRLVQFQKNTDEPMGITLKMNELNHCIVARIMHGGMIHRQGTLHVGDEIREINGISTANQTVEQLQKMLREMRGSITFKIVP [V57T]  0.027 ± 0.026
6. VRLVQFQKNTSEPMGITLKMNELNHCIVARIMHGGMIHRQGTLHVGDEIREINGISVANQTVEQLQKMLREMRGSITFKIVP [D11S]  0.009 ± 0.04
7. VRLVQFQKNTDEPMGITLKMNELNHCIVARIMHGGMIHRQGTLHVGDEIREINGMSVANQTVEQLQKMLREMRGSITFKIVP [I55M]  0.008 ± 0.034
8. VRLVQFQKNTDEPMGITLKMNELNHCIVARIMHGGMIHRQGTLHVGDEIREINGISVANQTVEQLSKMLREMRGSITFKIVP [Q66S]  -0.012 ± 0.025
9. VRLVQFQKNTDEPMGITLKMNELNHCIVARIMHGGMIHRQGTLHVGDEIREINGISVANQTVEQLQKMLMEMRGSITFKIVP [R70M]  -0.019 ± 0.031
10. VRSVQFQKNTDEPMGITLKMNELNHCIVARIMHGGMIHRQGTLHVGDEIREINGISVANQTVEQLQKMLREMRGSITFKIVP [L3S]  -0.026 ± 0.028
11. VRLVQFQKNTDEPMGITLKMNELNHCIVARIMHGGMIHRQGTLHVGDEIREINGISVANQTVEQLQKMLREMRGSIIFKIVP [T77I]  -0.026 ± 0.069
12. VRLVQFQKNTDEPMGITLKMNELNHCIVARIMHGGMIHRQGTLHVGDEIREINGISVANQSVEQLQKMLREMRGSITFKIVP [T61S]  -0.029 ± 0.025
13. VRLVQFQKNTDEPMGITLKMNELNHCIVARIMHGGMIHRQGTLHVGDEIREINGISVCNQTVEQLQKMLREMRGSITFKIVP [A58C]  -0.042 ± 0.036
14. VRLVQFQKNTDEPMGITLKMNELNHCIVARIMHGGMIHSQGTLHVGDEIREINGISVANQTVEQLQKMLREMRGSITFKIVP [R39S]  -0.047 ± 0.026
15. VRLVQFQKNTDEPMGITIKMNELNHCIVARIMHGGMIHRQGTLHVGDEIREINGISVANQTVEQLQKMLREMRGSITFKIVP [L18I]  -0.055 ± 0.098
16. VRLVQFQKNTDEPMGITLKMNELNHCIVACIMHGGMIHRQGTLHVGDEIREINGISVANQTVEQLQKMLREMRGSITFKIVP [R30C]  -0.055 ± 0.062
17. VRLVQFQKNTDEPMGITLKMNELNTCIVARIMHGGMIHRQGTLHVGDEIREINGISVANQTVEQLQKMLREMRGSITFKIVP [H25T]  -0.09 ± 0.029
18. VCLVQFQKNTDEPMGITLKMNELNHCIVARIMHGGMIHRQGTLHVGDEIREINGISVANQTVEQLQKMLREMRGSITFKIVP [R2C]  -0.09 ± 0.049
19. VRLIQFQKNTDEPMGITLKMNELNHCIVARIMHGGMIHRQGTLHVGDEIREINGISVANQTVEQLQKMLREMRGSITFKIVP [V4I]  -0.091 ± 0.049
20. VRLVQFQKNTDEPMGITLKMNELNHCIVARIMHGGMFHRQGTLHVGDEIREINGISVANQTVEQLQKMLREMRGSITFKIVP [I37F]  -0.092 ± 0.048
21. RRLVQFQKNTDEPMGITLKMNELNHCIVARIMHGGMIHRQGTLHVGDEIREINGISVANQTVEQLQKMLREMRGSITFKIVP [V1R]  -0.177 ± 0.043
22. VRLVQFQKNTDEPMGITLKMNELNHCIVARIMHGGMIHRQGTLHVGDEIREINGISVANQTVEQLQKMLREMRGSIHFKIVP [T77H]  -0.194 ± 0.055
23. VRLVQFQKNTDEPMGITLKMNELNHCIVARIMHGGMIHRQGTLHVGDEIREINGISVANQTVEQLQKMLREPRGSITFKIVP [M72P]  -0.244 ± 0.045
24. VRLVQFQKNTDEPMGITLKMNELNHCIVARIMHGGMIHFQGTLHVGDEIREINGISVANQTVEQLQKMLREMRGSITFKIVP [R39F]  -0.34 ± 0.051
25. VRLVQFQKNTDEPMGITLKMNELNHCIVARIMHGGMIHRQGTLHVGDEIREINGISVANQTVEQLQKMLREMRHSITFKIVP [G74H]  -0.355 ± 0.061
26. VRLVQFQKNTDEPMGITLKMNELNHCIVARIMHGGMIHRQGTLHVGDEIREINGISVANQTVEQLQKMLREMRGSSTFKIVP [I76S]  -0.448 ± 0.037
27. VRLVQFQKNTDEPMGITWKMNELNHCIVARIMHGGMIHRQGTLHVGDEIREINGISVANQTVEQLQKMLREMRGSITFKIVP [L18W]  -0.492 ± 0.05
28. VRLVQFQKNTDEPMGITLKMNELNHCIVARIMHGGMIHRQGTLHVGDEIREITGISVANQTVEQLQKMLREMRGSITFKIVP [N53T]  -0.567 ± 0.073
29. VRLVQFQKNTDEPMGITLKMNELNHCIVARAMHGGMIHRQGTLHVGDEIREINGISVANQTVEQLQKMLREMRGSITFKIVP [I31A]  -0.647 ± 0.059
30. VRLVQFQKNTDEPMGITSKMNELNHCIVARIMHGGMIHRQGTLHVGDEIREINGISVANQTVEQLQKMLREMRGSITFKIVP [L18S]  -0.699 ± 0.063
31. VRLVQNQKNTDEPMGITLKMNELNHCIVARIMHGGMIHRQGTLHVGDEIREINGISVANQTVEQLQKMLREMRGSITFKIVP [F6N]  -0.708 ± 0.069
32. VRLVQFQKNTDEPMGITLKMNELNHCIVARIMHGGMIHRQGTLHVGDEIREINGISVANQTVEQLQKMLREMRGSITFKQVP [I80Q]  -0.894 ± 0.13
33. VRLVQFQKNTDEPMGSTLKMNELNHCIVARIMHGGMIHRQGTLHVGDEIREINGISVANQTVEQLQKMLREMRGSITFKIVP [I16S]  -1.08 ± 0.15
34. VRLVQFQKNTDEPMGITLKMNELNHCIPARIMHGGMIHRQGTLHVGDEIREINGISVANQTVEQLQKMLREMRGSITFKIVP [V28P]  -1.08 ± 0.097

— the Human Domainome abundance scans (Beltran et al. 2025)
